Source: patent publication US9453060B2, “Protein engineered systems for delivery of molecules” (New York University, priority 2013, dated 2016)

What was measured:
MCF7 = test: β-galactosidase gene transfection across different cell lines; assay type: cell-based
[1] = Curcumin binding/loading to protein
[2] = Doxorubicin binding/loading to protein
MC3T3-E1 cells = test: Cell viability by MTT assay; assay type: cell-based, mouse
Procedure: Cell viability studies. The cells were seeded in 96-well plate at a density of […] in αMEM with 10% FBS and incubated at 37° C. with 5% CO2 overnight. The cytotoxicity of different complexes was evaluated by 3-(4,5-dimethylthiazol-2-yl)-2,5-diphenyl […] bromide, MTT assay. Approximately 10 μL of MTT reagent from 5 mg/mL stock was added to each well and incubated for 4 hours at 37° C. with 5% CO2. After incubation, the entire medium was aspirated and 100 μL of dimethyl sulfoxide was added to each well. The change in absorbance of colored solution was observed using a microplate reader Synergy HT at 570 nm. The percent cell viability was calculated by normalizing the observed absorbance value to that of the control cells without any treatment. The data was represented as the average of quadruplicates±standard deviation.

[3] = CD spectroscopy temperature scan (melting temperature); assay type: physicochemical; details: CD at 222 nm
Procedure: CD spectroscopy. The secondary structure of CSP/COMPcc was analyzed using a Jasco J-815 spectrometer at 10 μM protein concentration in 50 mM Tris-HCl buffer pH 8.0. The wavelength scans were performed at 4° C. over a range of 200-250 nm with a 1 nm step size. Temperature scans were performed at 222 nm from 20° C. to 85° C. with temperature ramp of 1° C./min The observed ellipticity value (Θ) was converted into mean residue ellipticity (MRE) using the standard equation ΘMRE=Θ/(10 cpl) where c is the molar concentration of the protein, p is the path length in centimeters and l is the number of amino acids. The fraction folded was derived using equation F=(ΘA−ΘU)/(ΘN−ΘU), where, ΘA is the MRE observed at given temperature, ΘU is MRE value for completely unfolded protein and ΘN is the MRE value of completely folded protein that is considered at 25° C. The first derivative of fraction folded was used to calculate melting temperature (Tm) of protein. All data were represented as an average of three trials.

[4] = system: β-galactosidase plasmid DNA; test: Electrophoretic mobility shift assay (gel retardation) of protein binding to plasmid DNA; details: protein to DNA w/w ratio 18:1
Procedure: The β-galactosidase plasmid DNA (5.1 kb) at a concentration of 50 ng was mixed with different concentrations of CSP and COMPcc and incubated at room temperature for 30 minutes. The mixtures were run on 1% agarose gel (stained with ethidium bromide) and imaged under UV light using ImageQuant (GE healthcare).

B1: CSP: engineered supercharged coiled-coil protein, SEQ ID NO:1; COMPcc with eight solvent-exposed residues mutated to arginine (protein)
chain: MRGSHHHHHHGSGRLRPQMLRELQRTNAALRDVRELLRQQVKEITRLKNTVRRSRASGKLN
modifications: supercharged coiled-coil protein
notes: COMPcc with eight solvent-exposed residues mutated to arginine
For B1, the “β-galactosidase gene transfection (in words)” value (MCF7) was “drastic increase in transfection”, the curcumin loading [1] was 63% and the doxorubicin loading [2] was 31%. For the same molecule, the “cytotoxicity (in words)” value (MC3T3-E1 cells) was “not cytotoxic” and the “decrease in the melting temperature (Tm) in comparison to the parent COMPcc” value [3] was 10 °C.

B2: COMPcc: cartilage oligomeric matrix protein coiled-coil, parent protein, SEQ ID NO:2 (protein)
chain: MRGSHHHHHHGSGDLAPQMLRELQETNAALQDVRELLRQQVKEITFLKNTVMESDASGKLN
modifications: supercharged coiled-coil protein
With B2 the “DNA shift at higher protein to DNA ratio” value [4] was “negligible DNA shift”, the curcumin loading [1] was 64% and the doxorubicin loading [2] was 26%.
